The source of these data is paper doi:10.1101/2020.10.28.357137.

For orientation: stoichiometry N means a count of units in the complex or per binding partner.

The assay deals with SARS-CoV-2 Spike S2 protein fused to the pilot peptide CilPP, on S-EVs (SARS-CoV-2). Briefly: non-reducing SDS-PAGE and Western blot. (In general: In western blotting, separated proteins are transferred to a membrane and probed.)

For the substance “SARS-CoV-2 Spike S2 protein fused to the pilot peptide CilPP, on S-EVs (domain or fragment)”, the stoichiometry N was determined as 3.
